According to patent US20230357340A1:

How the values were obtained:
[1] = target: recombinant human IL-18 (human) (UniProt Q14116); experiment: cell-based or functional assay
[2] = target: recombinant mouse IL-18 protein (mouse) (UniProt P70380)
Sequence of recombinant mouse IL-18 protein (mouse) (P70380 36-192 limits assumed): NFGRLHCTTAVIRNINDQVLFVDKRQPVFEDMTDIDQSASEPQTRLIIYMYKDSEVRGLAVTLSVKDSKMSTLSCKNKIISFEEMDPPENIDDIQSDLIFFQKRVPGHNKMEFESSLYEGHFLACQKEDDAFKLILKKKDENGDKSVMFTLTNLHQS

Sequence of recombinant human IL-18 (human) (Q14116 37-193 limits assumed): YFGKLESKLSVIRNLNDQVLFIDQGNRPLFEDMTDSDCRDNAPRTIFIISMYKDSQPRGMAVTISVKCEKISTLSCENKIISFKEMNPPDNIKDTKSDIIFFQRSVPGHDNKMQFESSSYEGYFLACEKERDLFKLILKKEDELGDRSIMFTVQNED

Substance	IC50 of inhibition of IL-18-induced IFN-γ production in KG-1 cells [1]	IC50 (read off the curve); mouse IL-18-induced IFN-γ secretion by mouse CD4+ T cells [2]
recombinant human interleukin-18-binding protein with C-terminal His-tag (hIL18BP-his8) (from UniProt O95998 31-194)	0.024 nM	0.3 nM
hIL18BP-His(SinoBio.) (from UniProt O95998)		1 nM
